Data as given in US20220305006A1, “COMPOSITIONS AND METHODS FOR THE TREATMENT OF NEUROLOGICAL DISEASES AND DISORDERS” (The Regents of the University of California, priority 2019, published 2022).
One block for each binder: values may come before it.

Molecular target: BACE1 structure PDB ID: 1XN3 after removal of BACE inhibitor 1 (apo model used in silico) (UniProt P56817)
Test: computed, not measured: MMPBSA (AMBER) on 10000 snapshots of a 50 ns molecular dynamics run

Chain of BACE1 structure PDB ID: 1XN3 after removal of BACE inhibitor 1 (apo model used in silico) (P56817 58-446 limits assumed): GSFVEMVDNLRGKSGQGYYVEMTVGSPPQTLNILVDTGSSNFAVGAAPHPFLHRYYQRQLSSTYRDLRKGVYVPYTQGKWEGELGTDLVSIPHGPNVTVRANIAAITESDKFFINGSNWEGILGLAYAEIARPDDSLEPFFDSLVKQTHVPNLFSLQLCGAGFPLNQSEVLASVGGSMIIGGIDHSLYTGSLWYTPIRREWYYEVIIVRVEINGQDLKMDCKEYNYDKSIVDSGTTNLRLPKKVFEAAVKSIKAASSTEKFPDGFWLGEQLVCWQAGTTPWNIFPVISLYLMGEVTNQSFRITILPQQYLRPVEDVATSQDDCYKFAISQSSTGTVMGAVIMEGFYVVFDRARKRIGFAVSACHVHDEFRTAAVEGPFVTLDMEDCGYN

BACE Binding ΔG: -25.4 kcal/mol
B1: Peptide 65005 (peptide)
peptide: Ac-NLTTYPYFIPL-NH2

BACE Binding ΔG: -45.1 kcal/mol
B2: Peptide 65007 (peptide)
peptide: Ac-ALYPYFLPISAK-NH2
